# Results published in patent publication US20190256560A1 (INSTITUT PASTEUR, published 2019).
# Molecular target: T1, Recombinant soluble Zika virus E ectodomain (ZIKV sE), strain H/PF/2013 (Zika virus, UniProt A0A024B7W1 291-694)
# T1 construct: also called ZIKV sE dimer; recombinant ZIKV E protein
# Experiment: BLI (Octet), IgG on anti-human IgG Fc sensors, ZIKV sE dimer in solution
# T1 sequence (A0A024B7W1 291-694): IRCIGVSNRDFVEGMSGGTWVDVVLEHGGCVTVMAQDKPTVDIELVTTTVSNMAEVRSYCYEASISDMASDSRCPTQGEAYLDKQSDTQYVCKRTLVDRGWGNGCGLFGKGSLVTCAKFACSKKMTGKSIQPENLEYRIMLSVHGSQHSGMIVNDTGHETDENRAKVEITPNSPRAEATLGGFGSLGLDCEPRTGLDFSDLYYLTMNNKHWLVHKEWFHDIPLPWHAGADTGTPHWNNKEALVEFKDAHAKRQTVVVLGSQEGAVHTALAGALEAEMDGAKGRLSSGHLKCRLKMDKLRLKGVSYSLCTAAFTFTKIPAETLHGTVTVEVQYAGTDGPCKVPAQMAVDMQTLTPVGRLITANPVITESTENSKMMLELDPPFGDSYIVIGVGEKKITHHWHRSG
binder,measurement,value
"EDE2 A11, human recombinant IgG (antibody, V domains shown, Human IgG; also called IgG EDE2 A11) VH: EVQLVESGGGLVRPGGSLRLSCAASGFSYSNHWMHWVRQAPGKGLVWVSRINSDGSTRNYADFVKGRFTISRDNAENTLYLEMNSLTADDTAVYYCVRDGVRFYYDSTGYYPDSFFKYGMDVWGQGTTVTV VL: QSVLTQPVSVSGSPGQSITISCTGTSSNADTYNLVSWYQQRPGKAPKLMIYEGTKRPSGVSNRFSASKSATAASLTISGLQPEDEADYYCCSYATSRTLVFGGGTKLTVV",binding result,binds
